Reference: publication PMC2566858 (Nucleic Acids Research, 2008)
Like-named read-outs stand apart in the source and are kept apart here.

T1: rGyr_hel (reverse gyrase helicase-like domain) (Thermotoga maritima, UniProt O51934 59-541)
T1 sequence: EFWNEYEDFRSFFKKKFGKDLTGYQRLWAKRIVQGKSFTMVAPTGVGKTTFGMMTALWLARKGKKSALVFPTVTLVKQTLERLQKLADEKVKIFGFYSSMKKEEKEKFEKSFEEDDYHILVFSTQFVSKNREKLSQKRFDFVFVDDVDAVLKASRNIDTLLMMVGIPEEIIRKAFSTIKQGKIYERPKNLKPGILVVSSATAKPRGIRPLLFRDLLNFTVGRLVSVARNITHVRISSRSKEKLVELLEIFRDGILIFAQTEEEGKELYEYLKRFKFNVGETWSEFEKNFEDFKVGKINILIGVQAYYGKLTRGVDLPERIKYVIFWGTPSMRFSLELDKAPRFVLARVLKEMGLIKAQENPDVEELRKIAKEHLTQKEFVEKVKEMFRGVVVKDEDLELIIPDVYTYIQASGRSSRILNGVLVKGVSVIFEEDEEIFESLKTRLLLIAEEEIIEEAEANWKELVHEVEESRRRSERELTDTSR

T2: rGyr_fl K106Q/Y851F (Thermotoga maritima, UniProt O51934 1-1104, K106Q;Y851F)
T2 sequence: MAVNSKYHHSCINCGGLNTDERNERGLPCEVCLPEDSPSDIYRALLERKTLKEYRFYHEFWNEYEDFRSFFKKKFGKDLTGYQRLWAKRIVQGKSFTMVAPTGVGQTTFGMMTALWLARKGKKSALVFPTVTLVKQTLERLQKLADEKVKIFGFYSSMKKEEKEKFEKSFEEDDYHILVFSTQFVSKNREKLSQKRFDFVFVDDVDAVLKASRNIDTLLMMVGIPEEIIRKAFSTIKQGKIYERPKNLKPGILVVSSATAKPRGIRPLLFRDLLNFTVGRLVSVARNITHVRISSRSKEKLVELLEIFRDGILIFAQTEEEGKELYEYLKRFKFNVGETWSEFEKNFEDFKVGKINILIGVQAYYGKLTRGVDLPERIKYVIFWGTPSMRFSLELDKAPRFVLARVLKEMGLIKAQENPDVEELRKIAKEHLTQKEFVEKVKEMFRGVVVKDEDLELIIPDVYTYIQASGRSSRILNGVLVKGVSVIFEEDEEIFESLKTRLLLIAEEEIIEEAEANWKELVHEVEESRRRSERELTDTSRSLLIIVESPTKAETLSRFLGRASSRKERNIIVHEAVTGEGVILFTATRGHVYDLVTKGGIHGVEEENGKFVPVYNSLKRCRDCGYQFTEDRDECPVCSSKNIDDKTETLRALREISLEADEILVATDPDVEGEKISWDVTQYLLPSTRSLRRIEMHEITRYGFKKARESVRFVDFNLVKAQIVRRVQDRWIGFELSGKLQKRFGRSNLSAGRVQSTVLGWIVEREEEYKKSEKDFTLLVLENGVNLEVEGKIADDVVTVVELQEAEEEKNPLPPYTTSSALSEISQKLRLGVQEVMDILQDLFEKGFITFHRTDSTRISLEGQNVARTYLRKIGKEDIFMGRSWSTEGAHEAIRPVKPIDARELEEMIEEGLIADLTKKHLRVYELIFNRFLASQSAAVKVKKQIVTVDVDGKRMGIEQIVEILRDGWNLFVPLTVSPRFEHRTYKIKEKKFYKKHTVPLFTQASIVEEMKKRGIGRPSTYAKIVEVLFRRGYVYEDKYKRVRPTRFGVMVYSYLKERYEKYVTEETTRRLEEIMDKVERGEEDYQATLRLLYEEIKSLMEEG


Key:
Assay in all cases: fluorescence anisotropy
[1] = target: T1, rGyr_hel (reverse gyrase helicase-like …)
[2] = target: T1, rGyr_hel (reverse gyrase helicase-like …); remark: listed apart in the source
[3] = target: T1, rGyr_hel (reverse gyrase helicase-like …); remark: listed apart in the source
rGyr_fl K106Q/Y851F = target: T2, rGyr_fl K106Q/Y851F

Binder | Kd [1] [nM] | Kd [2] [nM] | Kd [3] [nM] | Kd (rGyr_fl K106Q/Y851F) [nM]
60-base ssDNA (ssDNA) DNA: AAGCCAAGCTTCTAGAGTCAGCCCGTGATATTCATTACTTCTTATCCTAGGATCCCCGTT | 280 ± 10 | 2900 ± 100 | 310 ± 40 | 
60 bp dsDNA (dsDNA) DNA 1: AAGCCAAGCTTCTAGAGTCAGCCCGTGATATTCATTACTTCTTATCCTAGGATCCCCGTT DNA 2: AACGGGGATCCTAGGATAAGAAGTAATGAATATCACGGGCTGACTCTAGAAGCTTGGCTT |  |  |  | 710 ± 110
